Experimental data published in article PMC10724205.

What was measured:
CLP1 = test: BioID (proximity biotinylation, streptavidin isolation, mass spectrometry); details: HEK293T cells, transient transfection, biotin, 24 h; n = 3; read off a plot
DNTTIP2 = test: as above; details: HEK293T cells, transient transfection, biotin, 24 h; n = 3; read off a plot
MED6 = MED6 (UniProt O75586); test: as above; details: HEK293T cells, transient transfection, biotin, 24 h; n = 3; read off a plot
TAF9 = TAF9 (UniProt Q16594); test: as above; details: HEK293T cells, transient transfection, biotin, 24 h; n = 3; read off a plot
Sequence of UniProt Q16594 (Q16594 whole entry): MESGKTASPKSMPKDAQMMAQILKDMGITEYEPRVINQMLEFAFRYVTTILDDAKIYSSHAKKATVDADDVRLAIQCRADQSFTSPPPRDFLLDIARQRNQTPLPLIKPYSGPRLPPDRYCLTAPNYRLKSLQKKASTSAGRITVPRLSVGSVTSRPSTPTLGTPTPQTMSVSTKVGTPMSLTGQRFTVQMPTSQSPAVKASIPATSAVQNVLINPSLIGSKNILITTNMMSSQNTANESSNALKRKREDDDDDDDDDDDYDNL

TCF4 = test: as above; details: HEK293T cells, transient transfection, biotin, 24 h; n = 3; read off a plot
YY1 = test: as above; details: HEK293T cells, transient transfection, biotin, 24 h; n = 3; read off a plot
p300 = p300 (UniProt Q09472); test: as above; details: HEK293T cells, transient transfection, biotin, 24 h; n = 3; read off a plot
Sequence of UniProt Q09472 (Q09472 whole entry, the tested form may be a part): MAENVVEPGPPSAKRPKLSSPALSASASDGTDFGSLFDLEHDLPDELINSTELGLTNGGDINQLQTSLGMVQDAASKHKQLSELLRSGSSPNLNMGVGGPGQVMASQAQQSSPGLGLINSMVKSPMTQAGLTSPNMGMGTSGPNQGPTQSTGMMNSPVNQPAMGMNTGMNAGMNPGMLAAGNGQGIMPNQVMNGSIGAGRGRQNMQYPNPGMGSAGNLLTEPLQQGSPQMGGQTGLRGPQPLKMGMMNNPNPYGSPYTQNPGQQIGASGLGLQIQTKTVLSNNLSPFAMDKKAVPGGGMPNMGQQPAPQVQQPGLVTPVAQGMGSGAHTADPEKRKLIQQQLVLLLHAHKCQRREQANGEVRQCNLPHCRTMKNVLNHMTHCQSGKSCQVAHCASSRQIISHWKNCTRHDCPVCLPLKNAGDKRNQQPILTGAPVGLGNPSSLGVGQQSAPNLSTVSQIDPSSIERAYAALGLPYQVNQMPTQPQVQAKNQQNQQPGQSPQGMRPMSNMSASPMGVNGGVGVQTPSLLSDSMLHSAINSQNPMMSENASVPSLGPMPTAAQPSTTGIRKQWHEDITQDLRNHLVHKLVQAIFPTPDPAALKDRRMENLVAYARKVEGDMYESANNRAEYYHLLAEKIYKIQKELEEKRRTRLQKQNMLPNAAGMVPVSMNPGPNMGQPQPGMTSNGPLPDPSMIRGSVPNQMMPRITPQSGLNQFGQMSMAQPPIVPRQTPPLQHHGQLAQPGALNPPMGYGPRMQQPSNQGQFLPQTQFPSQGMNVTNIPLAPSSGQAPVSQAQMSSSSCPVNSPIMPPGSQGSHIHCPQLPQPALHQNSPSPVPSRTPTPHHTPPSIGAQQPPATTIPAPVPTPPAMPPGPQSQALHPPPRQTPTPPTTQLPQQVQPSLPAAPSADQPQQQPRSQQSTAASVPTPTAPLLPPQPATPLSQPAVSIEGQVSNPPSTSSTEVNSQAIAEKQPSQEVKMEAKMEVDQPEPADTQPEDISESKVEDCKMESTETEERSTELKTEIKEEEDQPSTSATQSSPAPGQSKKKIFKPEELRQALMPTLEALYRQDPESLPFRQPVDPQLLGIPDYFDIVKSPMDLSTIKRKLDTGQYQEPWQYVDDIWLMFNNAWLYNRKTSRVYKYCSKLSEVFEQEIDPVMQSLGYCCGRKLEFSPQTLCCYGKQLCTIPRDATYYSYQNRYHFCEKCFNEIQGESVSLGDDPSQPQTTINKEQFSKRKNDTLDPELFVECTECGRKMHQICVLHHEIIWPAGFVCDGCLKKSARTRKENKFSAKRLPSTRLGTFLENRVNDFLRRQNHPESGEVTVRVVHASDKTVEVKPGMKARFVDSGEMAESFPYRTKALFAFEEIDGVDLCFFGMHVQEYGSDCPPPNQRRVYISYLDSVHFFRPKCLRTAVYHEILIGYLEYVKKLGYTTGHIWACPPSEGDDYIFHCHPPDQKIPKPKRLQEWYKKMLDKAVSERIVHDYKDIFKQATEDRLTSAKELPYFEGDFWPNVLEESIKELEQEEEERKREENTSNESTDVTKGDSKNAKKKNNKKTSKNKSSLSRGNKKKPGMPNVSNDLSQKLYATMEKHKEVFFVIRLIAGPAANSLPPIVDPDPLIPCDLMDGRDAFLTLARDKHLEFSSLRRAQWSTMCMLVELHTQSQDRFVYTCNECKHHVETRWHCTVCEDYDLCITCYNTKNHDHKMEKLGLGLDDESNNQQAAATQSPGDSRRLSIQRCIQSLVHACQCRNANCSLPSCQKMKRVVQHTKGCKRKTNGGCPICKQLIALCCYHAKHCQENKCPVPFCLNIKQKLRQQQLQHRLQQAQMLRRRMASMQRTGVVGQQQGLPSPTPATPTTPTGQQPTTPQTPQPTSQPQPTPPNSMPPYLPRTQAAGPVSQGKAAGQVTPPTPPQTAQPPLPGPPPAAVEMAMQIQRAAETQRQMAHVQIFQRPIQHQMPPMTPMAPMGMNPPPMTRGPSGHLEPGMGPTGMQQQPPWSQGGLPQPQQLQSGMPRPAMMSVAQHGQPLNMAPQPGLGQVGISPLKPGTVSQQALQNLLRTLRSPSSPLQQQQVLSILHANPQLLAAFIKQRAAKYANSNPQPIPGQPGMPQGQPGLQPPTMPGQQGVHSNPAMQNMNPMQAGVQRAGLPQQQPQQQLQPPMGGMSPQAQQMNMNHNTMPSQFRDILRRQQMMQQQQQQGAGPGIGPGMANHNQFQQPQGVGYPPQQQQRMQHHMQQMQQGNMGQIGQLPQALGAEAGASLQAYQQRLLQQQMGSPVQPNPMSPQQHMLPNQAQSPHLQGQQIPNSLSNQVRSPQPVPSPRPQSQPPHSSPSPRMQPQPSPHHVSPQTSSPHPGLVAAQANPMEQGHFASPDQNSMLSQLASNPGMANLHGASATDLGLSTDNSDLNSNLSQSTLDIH

[1] = target: LacI-CFP-FOXO1 fusion protein with the C793S mutant FOXO1 domain; test: LacO array recruitment assay; U2OS cells with 50,000 Lac operon repeats on chromosome 1, transfected with CFP-LacI-FOXO1 fusion baits; endogenous p300 detected at the CFP dot by immunofluorescence after 48 h; dots counted for presence or absence of p300
[2] = target: LacI-CFP-FOXO1 fusion protein with the small C-terminal AD deleted; test: as above

Sequence of UniProt O75586 (O75586 whole entry): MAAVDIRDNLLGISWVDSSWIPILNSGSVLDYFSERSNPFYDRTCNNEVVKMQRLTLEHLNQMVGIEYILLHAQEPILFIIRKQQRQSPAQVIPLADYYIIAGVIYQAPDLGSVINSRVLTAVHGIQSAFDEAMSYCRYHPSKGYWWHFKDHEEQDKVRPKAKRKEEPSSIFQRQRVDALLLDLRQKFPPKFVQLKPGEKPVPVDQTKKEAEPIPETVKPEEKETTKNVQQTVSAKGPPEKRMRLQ

Row | other: Log2 (fold change) of total spectral counts (CLP1) | other: Log2 (fold change) of total spectral counts (DNTTIP2) | other: Log2 (fold change) of total spectral counts (MED6) | other: Log2 (fold change) of total spectral counts (TAF9) | other: Log2 (fold change) of total spectral counts (TCF4) | other: Log2 (fold change) of total spectral counts (YY1) | other: Log2 (fold change) of total spectral counts (p300) | loss of p300 recruitment against the wt FOXO1 [1] [percent] | reduction of p300 recruitment against the FOXO1 part of P3F [2] [percent] | Substance
1 | 2.2 | 2.5 | 1.2 | 3.8 | 1.4 | 2.4 | 0.7 | – | – | BirA-Flag/PAX3-FOXO1 fusion construct (wildtype P3F) C793S
2 | – | – | – | – | – | – | – | 30 | 90 | p300 (endogenous in U2OS cells) (from UniProt Q09472 1-2414) (natural protein)
